Test results as given in paper PMC2643122 (Molecular Microbiology, 2008).

Target: the molecule itself
Test: SEC

B1: recombinant full-length Candida albicans Ssa2 protein (natural protein)
chain: not shown
B1: binds.
